From PMC7067828, “FAM111A protects replication forks from protein obstacles via its trypsin-like domain” come the findings set out here.

The target of one data set is Strep-FAM111A (human, UniProt Q96PZ2 1-611). Briefly: fluorescence polarization; EMSA: 25 mM Tris-HCl pH 7.5, 5 mM MgCl2, 10% glycerol, 20 ng/ul BSA, 1 mM DTT, 0.7 pmol DNA in 10 ul, on ice 1 h; FP: 10 mM HEPES-NaOH pH 7.5, 150 mM NaCl, 10 nM DNA. The following applies: protein: recombinant; tags: N-terminal tandem Strep; label: 5' 6-FAM; single strand. (In fluorescence polarisation assays a small probe gives low polarisation when free and higher when bound to something large.)
Sequence of Strep-FAM111A (Q96PZ2 whole entry): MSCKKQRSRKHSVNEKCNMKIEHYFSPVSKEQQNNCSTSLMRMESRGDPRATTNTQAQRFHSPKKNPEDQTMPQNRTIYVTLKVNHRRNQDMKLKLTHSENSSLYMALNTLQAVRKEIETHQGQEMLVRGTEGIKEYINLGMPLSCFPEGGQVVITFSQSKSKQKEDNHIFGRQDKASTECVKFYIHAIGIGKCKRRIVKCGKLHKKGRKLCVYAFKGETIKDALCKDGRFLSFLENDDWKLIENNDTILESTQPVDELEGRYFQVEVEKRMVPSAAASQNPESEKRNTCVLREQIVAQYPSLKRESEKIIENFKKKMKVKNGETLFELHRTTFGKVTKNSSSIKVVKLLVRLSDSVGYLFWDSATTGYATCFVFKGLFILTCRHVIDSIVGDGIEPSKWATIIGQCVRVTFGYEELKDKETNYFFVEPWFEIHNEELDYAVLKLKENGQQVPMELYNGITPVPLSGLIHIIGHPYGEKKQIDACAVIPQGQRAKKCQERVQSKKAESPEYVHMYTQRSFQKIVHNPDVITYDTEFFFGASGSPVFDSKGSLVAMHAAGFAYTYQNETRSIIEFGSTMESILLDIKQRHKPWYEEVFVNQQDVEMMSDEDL

The target in data set [1] is T1, GST-FAM111A-strep (human, UniProt Q96PZ2 1-611). Briefly: EMSA; 5 mM Mg2+; EMSA: 25 mM Tris-HCl pH 7.5, 5 mM MgCl2, 10% glycerol, 20 ng/ul BSA, 1 mM DTT, 0.7 pmol DNA in 10 ul, on ice 1 h; FP: 10 mM HEPES-NaOH pH 7.5, 150 mM NaCl, 10 nM DNA. The note with it: protein: recombinant, tags: N-terminal GST, C-terminal tandem Strep. On the technique in general: Mobility shift assays separate free from complexed probe on a gel.
T1 sequence (Q96PZ2 whole entry): as above

The next data set deals with MBP-FAM111A 1-282 (human, UniProt Q96PZ2 1-282). The data set is described as above. The following applies: protein: recombinant; tags: N-terminal MBP; label: 5' IRDye700; single strand.
Sequence of MBP-FAM111A 1-282 (Q96PZ2 1-282): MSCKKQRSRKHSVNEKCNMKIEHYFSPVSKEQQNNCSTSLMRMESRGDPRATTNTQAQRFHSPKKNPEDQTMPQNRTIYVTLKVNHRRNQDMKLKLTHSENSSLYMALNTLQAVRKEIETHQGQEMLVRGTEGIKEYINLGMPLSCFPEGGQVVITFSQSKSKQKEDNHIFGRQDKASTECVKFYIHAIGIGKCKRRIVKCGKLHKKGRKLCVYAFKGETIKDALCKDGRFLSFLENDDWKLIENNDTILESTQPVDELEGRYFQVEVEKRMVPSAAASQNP
The target in a further data set is MBP-FAM111A 176-282 (human, UniProt Q96PZ2 176-282). Described as above. The note with it: protein: recombinant; tags: N-terminal MBP; label: 5' IRDye700; single strand.
Sequence of MBP-FAM111A 176-282 (Q96PZ2 176-282): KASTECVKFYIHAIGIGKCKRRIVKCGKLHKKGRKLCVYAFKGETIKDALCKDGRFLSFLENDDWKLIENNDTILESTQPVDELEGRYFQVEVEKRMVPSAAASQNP
The target in data set [2] is T1, GST-FAM111A-strep. Briefly: EMSA; 5 mM Mg2+; up to 450 nM protein; EMSA: 25 mM Tris-HCl pH 7.5, 5 mM MgCl2, 10% glycerol, 20 ng/ul BSA, 1 mM DTT, 0.7 pmol DNA in 10 ul, on ice 1 h; FP: 10 mM HEPES-NaOH pH 7.5, 150 mM NaCl, 10 nM DNA. The note with it: protein: recombinant; tags: N-terminal GST, C-terminal tandem Strep; label: 5' IRDye700 on strand 1; fork 1:2 1:3 2:4; both arms double-stranded.

For orientation: Kd means the concentration at which binding is half-saturated. Turning to CGACGATGCTCCGGTACTCCAGTGTAGGCAT (ssDNA) [6-FAM-O1676 (31 nt)], in the data set with Strep-FAM111A, the Kd was around 60 nM.

B1: ssDNA O3063 (75 nt) (ssDNA)
DNA: GTTTTCCCAGTCACGACGATGCTCCGGTACTCCAGTGTAGGCATATTACGAATTCTTGAGGCAGGCATGGTAGCT
Regarding B1, the binding result is “binds” in the data set with GST-FAM111A-strep [1] (label: 5' IRDye700, single strand); “binds” with MBP-FAM111A 1-282; “binds” with MBP-FAM111A 176-282.

B2: dsY fork O3063/O4787/O3730/O3757 (dsDNA)
DNA 1: GTTTTCCCAGTCACGACGATGCTCCGGTACTCCAGTGTAGGCATATTACGAATTCTTGAGGCAGGCATGGTAGCT
DNA 2: AGCTACCATGCCTGCCTCAAGAATTCGTAATATGCCTACACTGGACCGTACTTCGCCTAGTAGACTGCCTTCCCG
DNA 3: GTACCGGAGCATCGTCGTGACTGGGAAAAC
DNA 4: CGGGAAGGCAGTCTACTAGGCGAAGTACGG
As for B2, the binding result with GST-FAM111A-strep [2] is on record as “no binding”.

B3: Y fork O3063/O4787 (mixed)
DNA 1: GTTTTCCCAGTCACGACGATGCTCCGGTACTCCAGTGTAGGCATATTACGAATTCTTGAGGCAGGCATGGTAGCT
DNA 2: AGCTACCATGCCTGCCTCAAGAATTCGTAATATGCCTACACTGGACCGTACTTCGCCTAGTAGACTGCCTTCCCG
B3: in the data set with GST-FAM111A-strep [1] (label: 5' IRDye700 on strand 1, fork 1:2, 45 bp duplex, two 30-nt ss arms), the binding result is “binds”.
